# Measurements taken from US20020160955A1 (published 2002).
# How the values were obtained:
# [1] = biological target: IGF-I G1S-A70V (purified, soluble) (human, UniProt P05019 50-117); experiment: BIACORE; KD mut/KD wt
# Procedure: (§1) Carboxymethylated dextran biosensor chips (CM5, BIAcore Inc.) were activated with EDC (N-ethyl-N′-(3-dimethylaminopropyl)-carbodiimide hydrochloride) and NHS (N-hydroxysuccinimide) according to the supplier's instructions. For immobilization, IGF mutants in 20 mM sodium acetate, pH 4.8, were injected onto the biosensor chip at a concentration of 50 μg/ml to yield approximately 450-600 RU's (resonance-response units) of covalently-coupled protein. Unreacted groups were blocked with an injection of 1 M ethanolamine. […] Association rates (kₐ) and dissociation rates (kd) were calculated separately using a 1:1 Langmuir™ association model in the BIACORE™ evaluation software v. 3.0. The equilibrium dissociation constant (KD) was calculated as kd/kₐ.
# [2] = biological target: T1, IGF-I T4A (purified, soluble) (human, UniProt P05019 49-118); experiment: BIACORE; KD mut/KD wt
# T1 construct: made from the wild-type template pBKIGF2B-f1-ori
# Procedure: as §1
# [3] = biological target: T2, IGF-I V11A (purified, soluble) (human, UniProt P05019 49-118); experiment: BIACORE; KD mut/KD wt
# T2 construct: made from the wild-type template pBKIGF2B-f1-ori
# Procedure: as §1
# [4] = biological target: T3, IGF-I F16A (purified, soluble) (human, UniProt P05019 49-118); experiment: BIACORE; KD mut/KD wt
# T3 construct: made from the wild-type template pBKIGF2B-f1-ori; also called IGF-F16A; FI6A
# Procedure: as §1
# [5] = biological target: T4, IGF-I R36A (purified, soluble) (human, UniProt P05019 49-118); experiment: BIACORE; KD mut/KD wt
# T4 construct: made from the wild-type template pBKIGF2B-f1-ori
# Procedure: as §1
# [6] = biological target: T5, IGF-I P39A (purified, soluble) (human, UniProt P05019 49-118); experiment: BIACORE; KD mut/KD wt
# T5 construct: made from the wild-type template pBKIGF2B-f1-ori
# Procedure: as §1
# [7] = biological target: T6, F49A IGF-I (purified, soluble) (human, UniProt P05019 49-118); experiment: BIACORE; KD mut/KD wt
# T6 construct: made from the wild-type template pBKIGF2B-f1-ori; also called F49A IGF variant
# Procedure: as §1
# [8] = biological target: T7, IGF-I G1S-A70V displayed on phage (human; bacteriophage M13); experiment: competitive phage ELISA (FIG. 1)
# T7 construct: monovalent M13 phage display; template of the alanine scan; also called G1S-A70V IGF-I; wild-type-like IGF-I variant; not shown: M13 gene III fragment (residues 249-406, display partner) and the junction to it
# Procedure: Then phage concentrations were normalized to yield a maximal ELISA signal of 0.2-0.4 for each mutant (Lowman, in Cabilly, S. (ed.), supra). Threefold serial dilutions of soluble competitor were prepared on non-absorbent microtiter plates (Nunc, F, 96 wells) with binding buffer (0.5% TWEEN™ 20/PBS) containing phage at the previously-determined concentrations. […] After blocking, the plates containing immobilized target were washed with 0.05% TWEEN™/PBS buffer and subsequently incubated with 80 μl/well of the premixed phage-competitor solutions for 1 hour at room temperature. After washing, bound phage was detected with 80 μl/well of a solution containing a primary rabbit anti-phage polyclonal antibody and a secondary goat anti-rabbit monoclonal antibody-horseradish peroxidase conjugate in 0.5% TWEEN 20™/PBS. o-Phenylenediamine (Sigma) and tetramethylbenzidine (Kirkegaard and Perry) were used as chromogenic substrates, resulting in product detection at 492 and 450 nm, respectively. IC₅₀ values were determined by fitting the binding data to a generic saturation curve (Lowman, in Cabilly, S. (ed.), supra). […] Numbers in Table I represent mean +standard deviation of individually assessed IC₅₀ values.
# T6 sequence (P05019 49-118 F97A): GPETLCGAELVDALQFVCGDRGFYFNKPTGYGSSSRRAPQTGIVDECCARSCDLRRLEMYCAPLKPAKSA
# T2 sequence (P05019 49-118 V59A): as the sequence (P05019 49-118 F97A) above, with V11A, A49F counted along it
# T1 sequence (P05019 other isoform, or with tags, fused parts or gaps): as the sequence (P05019 49-118 F97A) above, with T4A, A49F counted along it
# T3 sequence (P05019 49-118 F64A): as the sequence (P05019 49-118 F97A) above, with F16A, A49F counted along it
# T4 sequence (P05019 49-118 R84A): as the sequence (P05019 49-118 F97A) above, with R36A, A49F counted along it
# T5 sequence (P05019 49-118 P87A): as the sequence (P05019 49-118 F97A) above, with P39A, A49F counted along it
binder,measurement,setting,value
"human IGFBP-1 (other, UniProt P08833 26-259, looked up, secreted recombinant protein purified from conditioned medium) APWQCAPCSAEKLALCPPVSASCSEVTRSAGCGCCPMCALPLGAACGVATARCARGLSCRALPGEQQPLHALTRGQGACVQESDASAPHAAEAGSPESPESTEITEEELLDNFHLMAPSEEDHSILWDAISTYDGSKALHVTNIKKWKEPCRIELYRVVESLAKAQETSGEEISKFYLPNCNKNGFYHSRQCETSMDGEAGLCWCVYPWNGKRIPGSPEIRGDPNCQIYFNVQN",relative KD,[1],1.1
same,relative KD,[2],6.9
same,relative KD,[3],5.1
same,relative KD,[4],25
same,relative KD,[5],1.1
same,relative KD,[6],1
same,relative KD,[7],70
same,IC50,[8],8.5 nM
